The results in this text go back to paper PMC2667179.

The assay has as its target sucrose synthase (Nicotiana tabacum (endogenous in BY-2 cells)). Nature of the assay: native gel or EMSA; two-dimensional blue native PAGE (4-14.5% gradient, 4°C) then SDS-PAGE of BY-2 plasma membrane proteins solubilized with 1% n-octyl-beta-D-glucopyranoside (750 mM amino caproic acid, 100 mM BisTris pH 7.0); subunits detected by immunoblotting on separate blots; association judged by comigration. On the technique in general: In EMSA bound probe runs differently from free probe, usually more slowly.

As usually defined, the stoichiometry N is a count of units in the complex or per binding partner. Consider sucrose synthase (enzyme), for which the stoichiometry N came out at 4.
